Reference: patent publication US20100221248A1

Tests used:
[1] = target: human FcγRIIIA, 158F 176V allele, soluble (human) (UniProt P08637); assay: SPR (Biacore T100), steady state, MBP-Fn3 immobilized, soluble FcR injected
[2] = target: human FcγRIIIA, 158F 176F allele, soluble (human) (UniProt P08637); assay: as above

Kd [1]: 3.9 µM
Kd [2]: 4.9 µM
B1: MBP-IIIA537 (designed binder, not shown: large carriers)
chain: LGENLYFQSVSDVPRDLEVVVATPTSLLINWDLPFSDSYRITYGETGGNSPVQGFTVPGTESIATISGLKPGVDYTITVYAVASSGSNSYPISINYRTEIDKPSQ
